Source: patent US20100068208A1, “Degranulation inhibitor” (priority 2005, published 2010)
Read-outs that look alike come from different tables or passages of the source. Each block holds one molecule with its values, some of them ahead of it. Where no end group is shown, it is not given here.

Key:
TGR12 = format: cell-based, human
Experimental: CHO/dhfr^− cells (hereinafter CHO) were incubated in α-MEM (Invitrogen) supplemented with 10% fetal calf serum. After a termination codon in the TGR12-encoding nucleotide sequence was removed, a nucleotide sequence ligated with the nucleotide sequence encoding GFP (Wako Pure Chemical) [hereinafter briefly referred to as TGR12-GFP (DNA having the nucleotide sequence represented by SEQ ID NO: 31)] was incorporated into vector plasmid pAKKO-111H (the same vector plasmid as pAKKO1.11H described in Biochim. Biophys. Acta, 1219, 251-259 (1994)) for animal cell expression, and the vector plasmid was stably expressed to establish TGR12-GFP-expressed CHO cell line (hereinafter CHO-TGR12). CHO-TGR12 was incubated in nucleic acid-free α-MEM medium (Invitrogen) containing 10% dialyzed fetal calf serum.
CHO-TGR12 was plated in a 96-well plate at a density of 30,000 cells/well. After incubation overnight, the medium was discarded and 100 μL/well of assay buffer [Hank's Balanced Salt Solution (Invitrogen), 20 mM HEPES (Dojin Chemical Laboratory) and 2.5 mM Probenecid (Sigma)] containing 4 μM Fluo3-AM (Dojin Chemical Laboratory) was added, which was then allowed to stand for an hour at 37° C. […] After the cells were washed with assay buffer, fluorescence reflecting changes in intracellular calcium levels was assayed on FLIPR (Molecular Device). Ten seconds after initiation of the assay, 50 μL of a sample was added at a rate of 50 μL/second. Fluorescence measurement was taken every 1 second during the first 60 seconds and then every 6 seconds during the next 120 seconds; the highest fluorescence intensity over a 3 minute period was taken as the maximum activity under the stimulation condition, representing the mean value of 3 wells. The EC50 values were determined using Graphpad PRISM 4 (Graphpad Software).

[1] = test system: human mast cell line LAD 2; experiment: TGR12 ligand-dependent degranulation of LAD 2 (β-hexosaminidase release); format: cell-based
Experimental: Human mast cell line LAD 2 was incubated in StemPro-34 medium (Invitrogen) supplemented with 100 ng/mL of stem cell factor (Immuno-Biological Laboratories Co., Ltd.). […] Subsequently, Tyrode's buffer containing 50 μL of TGR12 ligand (Peptide Institute, Inc.) in various concentrations was added and incubation was continued at 37° C. for further 20 minutes to induce degranulation. The degree of degranulation was determined by assaying the β-hexosaminidase activity in the degranulation assay supernatant as given below. The supernatant was dispensed into a 96-well plate and 0.1M citrate (pH 4.5)/1 mM 4-methyl umbelliferyl-2-acetamido-2-deoxy-beta-D-glucopyranoside (Wako Pure Chemical) in 5-fold of the supernatant was added thereto, followed by incubation at 37° C. for an hour. […] The activity was then assayed using Fusion-α (Perkin-Elmer). The β-hexosaminidase activity was also shown by the activity in the supernatant obtained by centrifugation after freezing and thawing LAD 2 four times, which was made total β-hexosaminidase activity in LAD 2, and the degree of degranulation was shown as the percentage of the β-hexosaminidase activity in the LAD 2 supernatant based on the total β-hexosaminidase activity.

human TGR12 (untagged) = molecular target: T1, human TGR12 (untagged) (human, UniProt Q96LB1 1-330); experiment: cell-based or functional assay
T1 sequence: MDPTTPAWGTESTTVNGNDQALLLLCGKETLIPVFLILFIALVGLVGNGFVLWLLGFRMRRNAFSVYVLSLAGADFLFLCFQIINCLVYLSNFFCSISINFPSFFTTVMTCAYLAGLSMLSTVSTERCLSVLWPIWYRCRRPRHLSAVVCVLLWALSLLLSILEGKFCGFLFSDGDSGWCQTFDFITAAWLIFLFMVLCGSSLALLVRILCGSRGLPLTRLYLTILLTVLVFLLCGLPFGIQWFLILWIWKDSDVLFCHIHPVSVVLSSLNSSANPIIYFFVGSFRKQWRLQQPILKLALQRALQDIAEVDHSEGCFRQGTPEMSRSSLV

[2] = molecular target: TGR12-GFP (fused protein of human TGR12 and GFP, encoded by the DNA of SEQ ID NO: 31), stably expressed on CHO cells (CHO-TGR12 of Example 1) (human) (UniProt Q96LB1); experiment: cell-based or functional assay
[3] = molecular target: T2, TGR12-GFP (fused protein of human TGR12 and GFP, encoded by the DNA of SEQ ID NO: 31), stably expressed on … (human, UniProt Q96LB1 1-330); experiment: cell-based or functional assay
T2 sequence: T1 sequence

Molecule: CC[C@H](C)[C@H](NC(=O)CNC(=O)[C@H](CC(=O)O)NC(=O)[C@H](CO)NC(=O)[C@@H](N)Cc1c[nH]cn1)C(=O)N[C@@H](Cc1ccccc1)C(=O)N[C@H](C(=O)N[C@@H](CC(=O)O)C(=O)N[C@@H](CO)C(=O)N[C@@H](Cc1ccc(O)cc1)C(=O)N[C@@H](CO)C(=O)N[C@@H](CCCNC(=N)N)C(=O)N[C@@H](Cc1ccc(O)cc1)C(=O)N[C@@H](CCCNC(=N)N)C(=O)N[C@@H](CCCCN)C(=O)N[C@@H](CCC(N)=O)C(=O)N[C@@H](CCSC)C(=O)N[C@@H](C)C(=O)N[C@H](C(=O)N[C@@H](CCCCN)C(=O)N[C@@H](CCCCN)C(=O)N[C@@H](Cc1ccc(O)cc1)C(=O)N[C@@H](CC(C)C)C(=O)N[C@@H](C)C(=O)N[C@@H](C)C(=O)N[C@H](C(=O)N[C@@H](CC(C)C)C(=O)NCC(=O)N[C@@H](CCCCN)C(=O)N[C@@H](CCCNC(=N)N)C(=O)N[C@@H](Cc1ccc(O)cc1)C(=O)N[C@@H](CCCCN)C(=O)N[C@@H](CCC(N)=O)C(=O)N[C@@H](CCCNC(=N)N)C(=O)N[C@H](C(=O)N[C@@H](CCCCN)C(=O)N[C@@H](CC(N)=O)C(=O)N[C@@H](CCCCN)C(N)=O)C(C)C)C(C)C)C(C)C)[C@@H](C)O [PACAP-38]
maximum activity in the calcium increasing effect (TGR12; CHO-TGR12, 0.3 nM, highest fluorescence intensity over 3 minutes): 287
maximum activity in the calcium increasing effect (TGR12; CHO-TGR12, 3 nM): 410
maximum activity in the calcium increasing effect (TGR12; CHO-TGR12, 30 nM): 195
maximum activity in the calcium increasing effect (TGR12; CHO-TGR12, 300 nM): 23043
maximum activity in the calcium increasing effect (TGR12; CHO-TGR12, 3000 nM): 23315
EC50 (TGR12; CHO-TGR12, read-out: EC50 in the calcium increasing effect on CHO-TGR12): ~161 nM
stimulated degranulation (β-hexosaminidase in supernatant, % of total) ([1]; LAD 2, 10 nM): 7.4%
stimulated degranulation (β-hexosaminidase in supernatant, % of total) ([1]; LAD 2, 30 nM): 24.8%
stimulated degranulation (β-hexosaminidase in supernatant, % of total) ([1]; LAD 2, 100 nM): 49.4%
stimulated degranulation (β-hexosaminidase in supernatant, % of total) ([1]; LAD 2, 300 nM): 65.8%
stimulated degranulation (β-hexosaminidase in supernatant, % of total) ([1]; LAD 2, 1 μM): 68.9%
stimulated degranulation (β-hexosaminidase in supernatant, % of total) ([1]; LAD 2, 3 μM): 63.3%
EC50 ([1]; LAD 2, read-out: EC50 in the degranulation on LAD 2): ~51 nM

EC50 in the degranulation on LAD 2 (human TGR12 (untagged)): 13 nM
degranulation of LAD 2 (beta-hexosaminidase release, % of total) at 3 nM (human TGR12 (untagged)): 6.3%
degranulation of LAD 2 (beta-hexosaminidase release, % of total) at 10 nM (human TGR12 (untagged)): 30.7%
degranulation of LAD 2 (beta-hexosaminidase release, % of total) at 30 nM (human TGR12 (untagged)): 52.1%
degranulation of LAD 2 (beta-hexosaminidase release, % of total) at 100 nM (human TGR12 (untagged)): 65.2%
degranulation of LAD 2 (beta-hexosaminidase release, % of total) at 300 nM (human TGR12 (untagged)): 67.7%
degranulation of LAD 2 (beta-hexosaminidase release, % of total) at 1 µM (human TGR12 (untagged)): 69.3%
maximum activity in the calcium increasing effect (FLIPR), RBL2H3-TGR12, at 1 nM (fluorescence intensity) (human TGR12 (untagged)): 41
maximum activity in the calcium increasing effect (FLIPR), RBL2H3-TGR12, at 10 nM (fluorescence intensity) (human TGR12 (untagged)): 2090
maximum activity in the calcium increasing effect (FLIPR), RBL2H3-TGR12, at 100 nM (fluorescence intensity) (human TGR12 (untagged)): 11100
maximum activity in the calcium increasing effect (FLIPR), RBL2H3-TGR12, at 1 µM (fluorescence intensity) (human TGR12 (untagged)): 12000
maximum activity in the calcium increasing effect (FLIPR), RBL2H3-TGR12, at 10 µM (fluorescence intensity) (human TGR12 (untagged)): 12300
EC50 in the calcium increasing effect on CHO-TGR12 [2]: 98 nM
maximum activity in the calcium increasing effect (FLIPR), CHO-TGR12, at 0.3 nM (fluorescence intensity) [2]: 255
maximum activity in the calcium increasing effect (FLIPR), CHO-TGR12, at 3 nM (fluorescence intensity) [2]: 1620
maximum activity in the calcium increasing effect (FLIPR), CHO-TGR12, at 30 nM (fluorescence intensity) [2]: 22300
maximum activity in the calcium increasing effect (FLIPR), CHO-TGR12, at 300 nM (fluorescence intensity) [2]: 24100
maximum activity in the calcium increasing effect (FLIPR), CHO-TGR12, at 3000 nM (fluorescence intensity) [2]: 23700
Molecule: human PAMP12 (proadrenomedullin N-terminal 20 peptide (9-20)) (from UniProt P35318 30-41)

maximum activity in the calcium increasing effect (FLIPR), CHO-TGR12, at 0.3 nM [3]: 67 fluorescence intensity
maximum activity in the calcium increasing effect (FLIPR), CHO-TGR12, at 3 nM [3]: 54 fluorescence intensity
maximum activity in the calcium increasing effect (FLIPR), CHO-TGR12, at 30 nM [3]: 94 fluorescence intensity
maximum activity in the calcium increasing effect (FLIPR), CHO-TGR12, at 300 nM [3]: 17900 fluorescence intensity
maximum activity in the calcium increasing effect (FLIPR), CHO-TGR12, at 3000 nM [3]: 23600 fluorescence intensity
degranulation of LAD 2 (beta-hexosaminidase release, % of total) at 10 nM (human TGR12 (untagged)): 1.6%
degranulation of LAD 2 (beta-hexosaminidase release, % of total) at 30 nM (human TGR12 (untagged)): 2.8%
degranulation of LAD 2 (beta-hexosaminidase release, % of total) at 100 nM (human TGR12 (untagged)): 26.5%
degranulation of LAD 2 (beta-hexosaminidase release, % of total) at 300 nM (human TGR12 (untagged)): 52.8%
degranulation of LAD 2 (beta-hexosaminidase release, % of total) at 1 µM (human TGR12 (untagged)): 62.2%
degranulation of LAD 2 (beta-hexosaminidase release, % of total) at 3 µM (human TGR12 (untagged)): 58.9%
maximum activity in the calcium increasing effect (FLIPR), RBL2H3-TGR12, at 1 nM (human TGR12 (untagged)): -2 fluorescence intensity
maximum activity in the calcium increasing effect (FLIPR), RBL2H3-TGR12, at 10 nM (human TGR12 (untagged)): 33 fluorescence intensity
maximum activity in the calcium increasing effect (FLIPR), RBL2H3-TGR12, at 100 nM (human TGR12 (untagged)): 1570 fluorescence intensity
maximum activity in the calcium increasing effect (FLIPR), RBL2H3-TGR12, at 1 µM (human TGR12 (untagged)): 11200 fluorescence intensity
maximum activity in the calcium increasing effect (FLIPR), RBL2H3-TGR12, at 10 µM (human TGR12 (untagged)): 12800 fluorescence intensity
Molecule: DRMPCRNFFWKTFSSCK (peptide, UniProt O00230 89-105, looked up, not fully specified; ends and bridges not checked) [human cortistatin-17]
